The target of this assay is SARS-CoV-2 nsp15 with H234A mutation and a N-terminal Strep-Tag II (SARS-CoV-2). Description: cryo-EM structure.

One may read the stoichiometry N as a count of units in the complex or per binding partner. “SARS-CoV-2 nsp15 with H234A mutation and a N-terminal Strep-Tag II (enzyme)” registered a stoichiometry N of 6.
